Experimental data published in patent publication US20210284709A1 (JUNO THERAPEUTICS, published 2021).
Positions count from the first letter of the chain named.

B1: TCR 27 (codon-optimized, cysteine-modified) (TCR, V domains shown)
V domain 1: DAKTTQPNSMESNEEEPVHLPCNHSTISGTDYIHWYRQLPSQGPEYVIHGLTSNVNNRMASLAIAEDRKSSTLILHRATLRDAAVYYCILRVPPQSGGYQKVTFGTGTKLQVIP
V domain 2: NAGVTQTPKFQVLKTGQSMTLQCAQDMNHNSMYWYRQDPGMGLRLIYYSASEGTTDKGEVPNGYNVSRLNKREFSLRLESAAPSQTSVYFCASSEFGSLNEKLFFGSGTQLSVLE
B2: TCR 24 (codon-optimized, cysteine-modified) (TCR, V domains shown)
V domain 1: AQKITQTQPGMFVQEKEAVTLDCTYDTSDQSYGLFWYKQPSSGEMIFLIYQGSYDEQNATEGRYSLNFQKARKSANLVISASQLGDSAMYFCAMREGRGDSWGKLQFGAGTQVVVTP
V domain 2: DVKVTQSSRYLVKRTGEKVFLECVQDMDHENMFWYRQDPGLGLRLIYFSYDVKMKEKGDIPEGYSVSREKKERFSLILESASTNQTSMYLCASSPFGRGSYEQYFGPGTRLTVTE
B3: TCR 10 (native, clonal T cell line) (TCR, V domains shown)
V domain 1: RKEVEQDPGPFNVPEGATVAFNCTYSNSASQSFFWYRQDCRKEPKLLMSVYSSGNEDGRFTAQLNRASQYISLLIRDSKLSDSATYLCVVNFPSRGAGGTSYGKLTFGQGTILTVHP
V domain 2: B2 V domain 2 with P95L, F96S, G97L, R98T, S100N, E102G, Q103Y, Y104T, P107S, T114V
B4: modified version of TCR 3 (TCR)
TCR alpha: AQKITQTQPGMFVQEKEAVTLDCTYDTSDQSYGLFWYKQPSSGEMIFLIYQGSYDEQNATEGRYSLNFQKARKSANLVISASQLGDSAMYFCAMREGRGFKTIFGAGTRLFVKANIQKPDPAVYQLRDSKSSDKSVCLFTDFDSQTNVSQSKDSDVYITDKCVLDMRSMDFKSNSAVAWSNKSDFACANAFNNSIIPADTFFPSPESSCDVKLVEKSFETDTNLNFQNLSVIGFRILLLKVAGFNLLMTLRLWSS
TCR beta: GAGVSQSPRYKVAKRGQDVALRCDPISGHVSLFWYQQALGQGPEFLTYFQNEAQLDKSGLPSDRFFAERPEGSVSTLKIQRTQQEDSAVYLCASSHLAGFTGELFFGEGSRLTVLEDLKNVFPPEVAVFEPSEAEISHTQKATLVCLATGFYPDHVELSWWVNGKEVHSGVCTDPQPLKEQPALNDSRYCLSSRLRVSATFWQNPRNHFRCQVQFYGLSENDEWTQDRAKPVTQIVSAEAWGRADCGFTSESYQQGVLSATILYEILLGKATLYAVLVSALVLMAMVKRKDSRG
B5: modified version of TCR 8 (TCR, V domains shown)
V domain 1: KQEVTQIPAALSVPEGENLVLNCSFTDSAIYNLQWFRQDPGKGLTSLLLIQSSQREQTSGRLNASLDKSSGRSTLYIAASQPGDSATYLCAVRPLGNTPLVFGKGTRLSVIA
V domain 2: KVTQSSRYLVKRTGEKVFLECVQDMDHENMFWYRQDPGLGLRLIYFSYDVKMKEKGDIPEGYSVSREKKERFSLILESASTNQTSMYLCASSLWGASTDTQYFGPGTRLTVLE
B6: modified version of TCR 9 (TCR)
TCR alpha: AQKITQTQPGMFVQEKEAVTLDCTYDTSDPSYGLFWYKQPSSGEMIFLIYQGSYDQQNATEGRYSLNFQKARKSANLVISASQLGDSAMYFCAMRTAGGTSYGKLTFGQGTILTVHPNIQNPDPAVYQLRDSKSSDKSVCLFTDFDSQTNVSQSKDSDVYITDKCVLDMRSMDFKSNSAVAWSNKSDFACANAFNNSIIPEDTFFPSPESSCDVKLVEKSFETDTNLNFQNLSVIGFRILLLKVAGFNLLMTLRLWSS
TCR beta: NAGVTQTPKFRVLKTGQSMTLLCAQDMNHEYMYWYRQDPGMGLRLIHYSVGEGTTAKGEVPDGYNVSRLKKQNFLLGLESAAPSQTSVYFCASSYFGTAYEQYFGPGTRLTVTEDLKNVFPPEVAVFEPSEAEISHTQKATLVCLATGFYPDHVELSWWVNGKEVHSGVCTDPQPLKEQPALNDSRYCLSSRLRVSATFWQNPRNHFRCQVQFYGLSENDEWTQDRAKPVTQIVSAEAWGRADCGFTSESYQQGVLSATILYEILLGKATLYAVLVSALVLMAMVKRKDSRG
B7: modified version of TCR 4 (TCR)
TCR alpha: DAKTTQPNSMESNEEEPVHLPCNHSTISGTDYIHWYRQLPSQGPEYVIHGLTSNVNNRMASLAIAEDRKSSTLILHRATLRDAAVYYCILLVIRGTSYGKLTFGQGTILTVHPNIQNPDPAVYQLRDSKSSDKSVCLFTDFDSQTNVSQSKDSDVYITDKCVLDMRSMDFKSNSAVAWSNKSDFACANAFNNSIIPEDTFFPSPESSCDVKLVEKSFETDTNLNFQNLSVIGFRILLLKVAGFNLLMTLRLWSS
TCR beta: DTGVSQDPRHKITKRGQNVTFRCDPISEHNRLYWYRQTLGQGPEFLTYFQNEAQLEKSRLLSDRFSAERPKGSFSTLEIQRTEQGDSAMYLCASSPGGGNTEAFFGQGTRLTVVEDLNKVFPPEVAVFEPSEAEISHTQKATLVCLATGFFPDHVELSWWVNGKEVHSGVCTDPQPLKEQPALNDSRYCLSSRLRVSATFWQNPRNHFRCQVQFYGLSENDEWTQDRAKPVTQIVSAEAWGRADCGFTSVSYQQGVLSATILYEILLGKATLYAVLVSALVLMAMVKRKDF
B8: modified version of TCR 5 (TCR, V domains shown)
V domain 1: B2 V domain 1 with R98T, D100T, W102Y, Q106T, A109Q, Q112I, V113L, V114T, T116H
V domain 2: DVKVTQSSRYLVKRTGEKVFLECVQDMDHENMFWYRQDPGLGLRLIYFSYDVKMKEKGDIPEGYSVSREKKERFSLILESASTNQTSMYLCASSPWGETHQPQHFGDGTRLSILE
B9: modified version of TCR 7 (TCR, V domains shown)
V domain 1: KNQVEQSPQSLIILEGKNCTLQCNYTVSPFSNLRWYKQDTGRGPVSLTIMTFSENTKSNGRYTATLDADTKQSSLHITASQLSDSASYICVVSRDNYGQNFVFGPGTRLSVLP
V domain 2: EPEVTQTPSHQVTQMGQEVILRCVPISNHLYFYWYRQILGQKVEFLVSFYNNEISEKSEIFDDQFSVERPDGSNFTLKIRSTKLEDSAMYFCAITDRTNYGYTFGSGTRLTVVE

target: T1, HLA-A2/E6(29-38) tetramer (human; HPV 16); test: flow cytometry, tetramer + anti-CD8; transfected mix of CD8- and CD8+ Jurkat-derived cells;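 also: CD4+ and CD4+/CD8+ cell mixtures transiently given TCR plasmids, analysed 48 h post-transfection by flow cytometry with E6(29-38)–HLA-A*02:01 tetramer plus anti-CD8 antibody co-stain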
T1 construct: also called E6(29-38) peptide-MHC tetramer; E6 tet
Protocol: (§1) For transfection, the CD4+ and CD4+/CD8+ cell mixtures were transiently transfected with TCR-encoding plasmids and 48 hours after transfection, cells were assessed by flow cytometry for (1) binding of the target peptide in the context of an MHC molecule (HLA:A02:01) by staining with an E6(29-38) peptide- or an E7(11-19) peptide-MHC tetramer reagent, and/or (2) CD8+ independent binding of the target by co-staining the tetramer-labeled cells with an anti-CD8 antibody.

Row | Binder | % cells E6 tet+/CD8+ quadrant | % cells E6 tet+/CD8- quadrant
1 | B1 | 15.8% | 3.5%
2 | B2 | 55% | 23.5%

target: T1, HLA-A2/E6(29-38) tetramer; test: tetramer staining of clonal T cell line vs control

Row | Binder | binding result
3 | B3 | binds

target: T1, HLA-A2/E6(29-38) tetramer; test: cell-based or functional assay

Row | Binder | % CD8+/IC IFNγ+
4 | B4 | 95.1%
5 | B5 | 95%
6 | B6 | 91.1%
7 | B7 | 94.2%
8 | B8 | 43.7%
9 | B9 | 70.5%

target: HLA-A2/E7(11-19) tetramer (human; HPV 16); test: cell-based or functional assay

Row | Binder | % CD8+/IC IFNγ+
10 | B4 | 2.51%
11 | B5 | 11.4%
12 | B6 | 19.5%
13 | B7 | 2.5%
14 | B8 | 7.22%
15 | B9 | 62.4%

target: T1, HLA-A2/E6(29-38) tetramer; test: flow cytometry, tetramer + anti-CD8; transfected Jurkat-derived cells, CD8+ cells
Protocol: as §1

Row | Binder | % cells E6 tet+/CD8+ quadrant | % cells E6 tet+/CD8- quadrant
16 | B6 | 42.5% | 0.051%
17 | B1 | 24.5% | 0.02%
18 | B2 | 29.1% | 0.13%
